# From publication PMC8865458
# System: T1, His-NrtR (Pseudomonas aeruginosa PAK), ORF:d24b93ef
# T1 sequence: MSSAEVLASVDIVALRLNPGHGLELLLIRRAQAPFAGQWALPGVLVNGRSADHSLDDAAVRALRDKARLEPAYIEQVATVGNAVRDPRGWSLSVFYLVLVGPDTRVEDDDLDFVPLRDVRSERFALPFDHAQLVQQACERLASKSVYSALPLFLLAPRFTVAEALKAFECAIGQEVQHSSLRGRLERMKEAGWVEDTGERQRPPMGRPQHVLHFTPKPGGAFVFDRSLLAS
# Assay: EMSA
# Settings: 10 mM Tris, 1 mM DTT, pH 7.5, […]
row,Sequence,binding
1,AGAAAATACCTTCCACTGCGAAATTTTGTAGTACAAGTGCTTGACGACTTATTTCACGTGATGAATTATGTACCCACATTCAGCCCCAACCCGTCAAGCGGAGGCTTCC (double strand) [nadD2 promoter fragment],binds
2,CCGCGTTGCCGACCGTGGCCACCTGCTCGATGTAGGCCGGCTCCAGCCGCGCCTTGTCGCGCAGGGCGCGCACCGCCGCGTCGTCGAGGCTGTGGTCGGCGCTGCGGCCGTTGACCAGCACGCCGGGCAAGGCCCACTGGCCGGCGAAAGGCGCCTGGGCGCGGCGGATCAGCAACA (double strand) [nrtR coding fragment],no binding
3,CAGGAGTGATATTAGCGATTCCCAGTGCTCCCGCAACCTGCCAGAAAACCCAGCGAAGCTTCTTCGGCAGCCATTTTAGAAAAATATATTCCTTTAATTTCAATAAGTTACTTAAATTCACCGAGCGTTTTTGGCAAACCTCCCGGGCATTTATCTACTTAGGCTCACACGCCGTGTAAGTTAATGCTTACAAGAGCAGACACAAAAAACCCGGCGAACGCCGGGTCTTCAGTGGGTCTAAGGTTTTCCG (double strand) [rsmZ promoter fragment],binds
4,GCTGGGAAGGCTCGCGATGATGAGGGGACTGGCCACTGTAGCGGGCCCGGCGCAGATCATCTTGACGCACGGCAAGCTCCCGGCGGCTGGGTGTTGCCGTCGGTCCGGCGAGCGGAACTATTACAGCGTGTAAGCCAAGGCTTACAAACGGCGGTGGTTTTGGCTGCTTTCTCCCCCTCGCGGAGATGCGTAATCTTCAAACCGTCAGGACATTGCGCAGGAAGCGCCAAAGACAATACGG (double strand) [rsmY promoter fragment],binds
